Measured values taken from PMC7502484.
pIC50: −log10 of the molar value.

Molecular target: human PTH1R in transiently transfected COS-7 cell membranes (human) (UniProt Q03431)
Experiment: radioligand binding

Sequence of UniProt Q03431 (Q03431 27-593): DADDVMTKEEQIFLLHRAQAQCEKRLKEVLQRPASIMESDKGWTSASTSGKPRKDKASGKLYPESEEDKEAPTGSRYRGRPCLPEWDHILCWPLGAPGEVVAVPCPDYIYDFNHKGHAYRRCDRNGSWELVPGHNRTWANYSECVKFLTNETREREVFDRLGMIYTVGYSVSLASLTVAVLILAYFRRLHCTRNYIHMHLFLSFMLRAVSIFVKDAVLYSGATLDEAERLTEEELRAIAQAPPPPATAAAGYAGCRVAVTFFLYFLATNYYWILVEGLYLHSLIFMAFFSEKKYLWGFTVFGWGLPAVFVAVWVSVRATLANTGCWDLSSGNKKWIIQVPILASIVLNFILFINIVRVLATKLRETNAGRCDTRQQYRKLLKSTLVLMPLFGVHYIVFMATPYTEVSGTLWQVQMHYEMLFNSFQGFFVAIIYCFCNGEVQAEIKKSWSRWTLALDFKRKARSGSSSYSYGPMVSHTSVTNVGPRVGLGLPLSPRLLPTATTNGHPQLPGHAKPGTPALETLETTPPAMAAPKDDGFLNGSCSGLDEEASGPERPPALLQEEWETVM

## PTH(1–34)^H9A (peptide)
  pIC50: 7.86
